Changes are numbered by the printed parent chain. Non-standard residues stand in square brackets, D forms with d. Residues, ends and D or L forms follow the SMILES beside them. No end group written: not given here. *: point of attachment. Fluorescein(5-Mal) = O=C1OC2(c3ccc(O)cc3Oc3cc(O)ccc32)c2ccc(N3C(=O)CC(*)C3=O)cc21; 5FAM = O=C1OC2(c3ccc(O)cc3Oc3cc(O)ccc32)c2ccc(C(=O)*)cc21; C(fluorescein) = cysteine carrying a fluorescein label; Nle = CCCC[C@H](N)C(=O)O
T1: BsYpbE_(1-21), fluorescein-labelled (B. subtilis, UniProt P50731 1-21, fluorescein (position not given))
T1 construct: also called 21-residue fragment of the cytoplasmic domain of BsYpbE; source: synthetic peptide
T1 peptide: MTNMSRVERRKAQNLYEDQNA

T2: BsPBP1_(1-32), TAMRA-labelled at position 16 (B. subtilis, UniProt P39793 1-32, Ser16Cys, TAMRA (maleimide) at position 16)
T2 construct: PBP1, Bacillus subtilis, residues 1-32; also called BsPBPA1_(1-32); BsPBP1A_(1-32); source: E. coli, His-tagged MBP fusion purified (Ni-NTA), labelled, TEV-cleaved, ultrafiltration
T2 peptide (looked up): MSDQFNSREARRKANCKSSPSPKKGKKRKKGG

T3: BsGpsB_(1-68) (B. subtilis, UniProt P0CI74 1-68)
T3 construct: GpsB, Bacillus subtilis, residues 1-68; also called N-terminal domain of BsGpsB; source: E. coli, purified (Ni-NTA, thrombin, size exclusion)
T3 sequence (looked up): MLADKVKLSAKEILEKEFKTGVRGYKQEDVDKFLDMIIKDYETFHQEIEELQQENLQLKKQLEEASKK

T4: SpGpsB_(1-63) (S. pneumoniae R6, UniProt Q8DR57 1-63)
T4 construct: GpsB, Streptococcus pneumoniae R6, residues 1-63 (stop codon in place of Pro64); also called N-terminal domain of SpGpsB; wildtype SpGpsB_(1-63); source: E. coli, purified (Ni-NTA, thrombin, ammonium sulphate precipitation, gel filtration)
T4 sequence (looked up): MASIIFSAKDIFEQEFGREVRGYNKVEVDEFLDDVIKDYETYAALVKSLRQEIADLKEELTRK

T5: BsGpsB1-68 Tyr25Phe (B. subtilis, UniProt P0CI74 1-68, Tyr25Phe)
T5 construct: GpsB, Bacillus subtilis, residues 1-68 (N-terminal domain); also called BsGpsB1-68 Y25F; source: E. coli BL21(DE3), purified (Ni-NTA, thrombin removal of the His6-tag, SEC); not shown: His6, N-terminal, cleaved
T5 sequence (looked up): T3 sequence (looked up) with Y25F

T6: BsGpsB1-68 Asp31Ala (B. subtilis, UniProt P0CI74 1-68, Asp31Ala)
T6 construct: GpsB, Bacillus subtilis, residues 1-68 (N-terminal domain); also called BsGpsB1-68 D31A; source: E. coli BL21(DE3), purified (Ni-NTA, thrombin removal of the His6-tag, SEC); not shown: His6, N-terminal, cleaved
T6 sequence (looked up): T3 sequence (looked up) with D31A

B1: BsGpsB_(1-68)^Asp31Ala (domain or fragment, B. subtilis, UniProt P0CI74 1-68, looked up)
chain: T3 sequence (looked up) with D31A
notes: GpsB, Bacillus subtilis, residues 1-68; also called BsGpsB^Asp31Ala; source: E. coli, purified (Ni-NTA, thrombin, size exclusion)
B2: BsGpsB1-68: N-terminal domain of B. subtilis GpsB (protein)
chain: T3 sequence (looked up)
modifications: left off: His6, N-terminal, cleaved
notes: N-terminal domain of B. subtilis GpsB
B3: BsGpsB_(1-68)^Tyr25Phe (domain or fragment, B. subtilis, UniProt P0CI74 1-68, looked up)
chain: T3 sequence (looked up) with Y25F
notes: GpsB, Bacillus subtilis, residues 1-68; the making of this mutant is not described in the methods; also called BsGpsB^Tyr25Phe; source: E. coli, purified (Ni-NTA, thrombin, size exclusion)
B4: BsYrrS_(1-18), fluorescein-labelled (peptide, UniProt O32031 1-18, looked up)
peptide: MSNNQSRYENRDKRRKAN
modifications: also: fluorescein label, position not given here
notes: YrrS, Bacillus subtilis, residues 1-18; also called entire cytoplasmic mini-domain of BsYrrS
B5: BsYpbE: B. subtilis YpbE, LysM-domain membrane protein (protein, UniProt P50731 1-240, looked up)
Uncharacterized protein YpbE: MTNMSRVERRKAQNLYEDQNAALADDYVDDGESLPTRQSVKNQREQKKKQGKTKTPLFTVLAVIFVFVPVIVLVTLFYLKSHPDNHDDYEDVFIDSSQSKYEVVPKSEDKNDTADTKETALQKESKKEPEDSKPKEQTAADKKQTAVAEKEDSPNKEEATAAAASSSQSTVQQQEQPAEPVQNVPNRVVKHTVQKKETLYRISMKYYKSRTGEEKIRAYNHLNGNDVYTGQVLDIPLMDE
B6: SpPBP2a_(23-45), TAMRA-labelled (peptide)
peptide: DSDSTILRRSRSDRKKLAQVCPI
modifications: also: TAMRA (maleimide) label, site not given here
notes: source: E. coli, His-tagged MBP fusion purified (Ni-NTA), labelled, TEV-cleaved, ultrafiltration
B7: SpPBP2x_(1-29), fluorescently labelled (peptide)
peptide: GSGMKWTKRVIRYATKNRKSPAENRRRVGKSLCS
modifications: also: TAMRA or fluorescein maleimide label, which one and site not given here
notes: as for B6
B8: Fluoroescein-BsYrrS1-18 (peptide)
chain: MSNNQSRYENRDKRRKAN-{C(fluorescein)}
B9: BsYrrS: B. subtilis YrrS (protein, UniProt O32031 1-233, looked up)
Uncharacterized membrane …: MSNNQSRYENRDKRRKANLVLNILIAIVSILIVVVAANLFINSPSSKDVSKDSETAQKQESPASGKTEKKSDEDIKDSKKDTSDSEKDSEKSSDSDSKKDDSSSKKDDSDSDSSSDSAGDGLKDAKVTEGGSSSDVEKTYENPDWKAVGTEQTGEHAATYDSSSQDWAEMLKAISYATGVSTDNMTVLWLGNNGSPQDAKGKILDKATGNKYQVTITWVDEKGWKPTKVEKLK

How the values were obtained:
BsGpsB1-68Tyr25Phe = target: T7, BsGpsB1-68Tyr25Phe (Bacillus subtilis, UniProt P0CI74, Y25F); test: Fluorescence polarisation binding to BsGpsB1-68Tyr25Phe; settings: FP, BsGpsB Tyr25Phe relative to wild-type BsGpsB1-68
T7 construct: correspond to BsGpsB1-68^Asp31Ala and BsGpsB1-68^Tyr25Phe mutants, respectively; His6 (N, cleaved yes); made in house; host or cells: E. coli BL21(DE3)
Description: (§1) 75 the BsGpsB5-64:BsPBP11-17 complex.

BsGpsB1-68Asp31Ala = target: T8, BsGpsB1-68Asp31Ala (Bacillus subtilis, UniProt P0CI74, D31A); test: Fluorescence polarisation binding to BsGpsB1-68Asp31Ala; settings: FP, BsGpsB Asp31Ala relative to wild-type BsGpsB1-68
T8 construct: Glu17Ala, Asp31Ala and Asp35Ala mutations were introduced to the BsGpsB1-68 expression construct plasmid; His6 (N, cleaved yes); made in house; host or cells: E. coli BL21(DE3)
Description: as §1

[1] = target: TAMRA-SpPBP2a23-45 wildtype (S. pneumoniae R6); test: fluorescence polarisation
[2] = target: Fluorescein-LmPBPA11-20 wildtype (L. monocytogenes EGD-e); test: fluorescence polarisation
[3] = target: Fluorescein-LmPBPA11-20 Arg12Ala (L. monocytogenes EGD-e); test: fluorescence polarisation
[4] = target: Fluorescein-LmPBPA11-20 Arg8Ala (L. monocytogenes EGD-e); test: fluorescence polarisation
[5] = target: Fluorescein-LmPBPA11-20 Arg8AlaSer16Arg (L. monocytogenes EGD-e); test: fluorescence polarisation
[6] = target: T1, BsYpbE_(1-21), fluorescein-labelled; test: fluorescence polarisation; settings: both partners purified
[7] = target: T2, BsPBP1_(1-32), TAMRA-labelled at …; test: fluorescence polarisation; GpsB protein titrated into fluorescently labelled peptide; 10 mM Tris.HCl pH 8.0, 250 mM NaCl, 0.1% reduced Triton X-100; fit to a 1:1 interaction model; settings: both partners purified
[8] = target: B4; test: as above; settings: both partners purified
full-length BsPBP1 = test: SPR binding to immobilised full-length BsPBP1; design: species or system Bacillus subtilis; settings: SPR, PBP1-coated chip; full-length GpsB data fit 1:1 only over limited concentration range (avidity), BsGpsB1-68 supports 1:1; peer review file; read-out: affinity / Kd by SPR
Description: BsPBP1 and BsPBP1_17-914 were immobilised on the surface of a CM5 chip (GE Healthcare). For the BsPBP1/YrrSΔ13-16 titration 800 RUs of BsPBP1 were immobilised on the chip surface; for the BsPBP1/BsGpsB titration 1200 RUs of BsPBP1 were immobilised. YrrSΔ13-16, which lacks residues 13–16 in the cytoplasmic domain, was used in these experiments to minimise non-specific interactions with the chip matrix; binding of YrrSΔ13-16 to the reference surface was negligible and the deletion of residues 13–16 leaves the GpsB-binding motif intact. The YrrSΔ13-16 titration was carried out in single-cycle mode, without regenerating the surface between successive injections of protein, because harsh reagents were necessary for full surface regeneration.

BsGpsB_(1-68) = target: T3, BsGpsB_(1-68); test: fluorescence polarisation; GpsB protein titrated into fluorescently labelled peptide; 10 mM Tris.HCl pH 8.0, 250 mM NaCl, 0.1% reduced Triton X-100; fit to a 1:1 interaction model; settings: both partners purified
BsGpsB = target: T9, BsGpsB (Bacillus subtilis, UniProt P0CI74); test: BACTH interaction with BsGpsB; type: cell-based; settings: E. coli BTH101, nutrient agar, 30 °C
T9 construct: new FP data concerning full length BsGpsB have now been added to; made in house; host or cells: E. coli BL21(DE3)

SpGpsB_(1-63) = target: T4, SpGpsB_(1-63); test: fluorescence polarisation; settings: both partners purified
BsGpsB1-68 Tyr25Phe = target: T5, BsGpsB1-68 Tyr25Phe; test: fluorescence polarisation; GpsB protein titrated into TAMRA- or fluorescein-labelled peptide; 10 mM Tris.HCl pH 8.0, 250 mM NaCl, 0.1% reduced Triton X-100; all data fitted to a 1:1 interaction model, Kd ± standard error; settings: both partners purified
BsGpsB1-68 Asp31Ala = target: T6, BsGpsB1-68 Asp31Ala; test: as above; settings: both partners purified

T7 sequence (P0CI74 1-68 Y25F): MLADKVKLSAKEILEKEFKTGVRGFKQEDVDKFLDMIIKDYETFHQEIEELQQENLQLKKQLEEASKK
T8 sequence (P0CI74 1-68 D31A): as the sequence (P0CI74 1-68 Y25F) above, with F25Y, D31A counted along it
T9 sequence (P0CI74 whole entry): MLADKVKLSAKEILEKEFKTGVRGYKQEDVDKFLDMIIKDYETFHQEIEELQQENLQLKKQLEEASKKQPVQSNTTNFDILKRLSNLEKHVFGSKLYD

In the case of CSCC[C@H](NC(=O)[C@H](CO)NC(=O)CN)C(=O)NCC(=O)N[C@@H](CC(N)=O)C(=O)N[C@@H](CC(N)=O)C(=O)N[C@@H](CCC(N)=O)C(=O)N[C@@H](CO)C(=O)N[C@@H](CCCNC(=N)N)C(=O)N[C@@H](Cc1ccc(O)cc1)C(=O)N[C@@H](CCC(=O)O)C(=O)N[C@@H](CC(N)=O)C(=O)N[C@@H](CCCNC(=N)N)C(=O)N[C@@H](CC(=O)O)C(=O)N[C@@H](CCCCN)C(=O)N[C@@H](CCCNC(=N)N)C(=O)N[C@@H](CCCNC(=N)N)C(=O)N[C@@H](CCCCN)C(=O)N[C@@H](C)C(=O)N[C@@H](CC(N)=O)C(=O)N[C@@H](CSC1CC(=O)N(c2ccc3c(c2)C(=O)OC32c3ccc(O)cc3Oc3cc(O)ccc32)C1=O)C(=O)NCC(=O)O (stereo partly drawn) [Fluoroescein-BsYrrS1-18] (H-GSMGNNQSRYENRDKRRKANC(Fluorescein(5-Mal))G-OH; N-terminus and C-terminus assumed), the “reduction in affinity on GpsB mutation” value (BsGpsB1-68Tyr25Phe) is reported as 7 fold and the “reduction in affinity on GpsB mutation” value (BsGpsB1-68Asp31Ala) is reported as 7 fold.

“SpGpsB1-63 Asp33Ala (domain or fragment)” was tested, and the Kd [1] was greater than 3000 µM.

For “LmGpsB1-73 (from UniProt Q8Y614 1-73) (domain or fragment)”, the Kd [2] was 200 µM.

“BsGpsB1-68 Lys32Glu (from UniProt P0CI74 1-68) (domain or fragment)” was tested, and the Kd [3] was 800 µM, the Kd [4] was greater than 3000 µM and the Kd [5] was greater than 2000 µM. For the same molecule, the Kd [2] was 190 µM.

With CCCC[C@H](NC(=O)c1ccc2c(c1)C(=O)OC21c2ccc(O)cc2Oc2cc(O)ccc21)C(=O)N[C@H](C(=O)N[C@@H](CC(N)=O)C(=O)N[C@@H](CCCC)C(=O)N[C@@H](CO)C(=O)N[C@@H](CCCNC(=N)N)C(=O)N[C@H](C(=O)N[C@@H](CCC(=O)O)C(=O)N[C@@H](CCCNC(=N)N)C(=O)N[C@@H](CCCNC(=N)N)C(=O)N[C@@H](CCCCN)C(=O)N[C@@H](C)C(=O)N[C@@H](CCC(N)=O)C(=O)N[C@@H](CC(N)=O)C(=O)N[C@@H](CC(C)C)C(=O)N[C@@H](Cc1ccc(O)cc1)C(=O)N[C@@H](CCC(=O)O)C(=O)N[C@@H](CC(=O)O)C(=O)N[C@@H](CCC(N)=O)C(=O)N[C@@H](CC(N)=O)C(=O)N[C@@H](C)C(=O)O)C(C)C)[C@@H](C)O [Fluoroescein-BsYpbE1-21] (5FAM-[Nle]TN[Nle]SRVERRKAQNLYEDQNA-OH; N-terminus and C-terminus assumed) the “reduction in affinity on GpsB mutation” value (BsGpsB1-68Tyr25Phe) was ~ 40 fold and the “reduction in affinity on GpsB mutation” value (BsGpsB1-68Asp31Ala) was ~ 40 fold.

For B1, the “fold reduction in affinity against wild type” value (from here on “fold reduction in affinity”) [6] was roughly 40 fold, the “fold reduction in affinity” value [7] was greater than 8 fold and the “fold reduction in affinity” value [8] was 7 fold.

In the case of B2, the Kd (full-length BsPBP1) is reported as 40 µM.

With B3 the “fold reduction in affinity” value [6] was roughly 40 fold, the “fold reduction in affinity” value [7] was greater than 8 fold and the “fold reduction in affinity” value [8] was 7 fold.

For B4, the Kd (BsGpsB_(1-68)) was 430 µM.

With B5 the “BACTH interaction with BsGpsB” value (BsGpsB) was “detected”.

With B6 the Kd (SpGpsB_(1-63)) was 80 µM.

B7: binds (SpGpsB_(1-63)).

Work on B8 yielded a Kd (BsGpsB1-68 Tyr25Phe) greater than 3000 µM and a Kd (BsGpsB1-68 Asp31Ala) greater than 3000 µM.

In the case of B9, the “BACTH interaction with BsGpsB” value (BsGpsB) is reported as “detected”.

From PMC6335420, “The cell cycle regulator GpsB functions as cytosolic adaptor for multiple cell wall enzymes” (Nature Communications, 2019)
